{
  "source": "patent US20070189962A1",
  "about": "(GOV OF US AS REPRESENTED BY THE SEC OF HEALTH, published 2007)",
  "molecules": {"B1": {"name": "B5 (scFv displayed on phage) (scFv, V domains shown)", "VH": "EVQLVESGGGLVKPGGSLKLSCAASGFAFSIYDMSWVRQTPEKRLEWVAYISSGGGTTYYPDTVKGRFTISRDNAKNTLYLQMSSLKSEDTAMYYCARHSGYGTHWGVLFAYWGQGTLVTVSA", "VL": "DIQMTQTTSSLSASLGDRVTISCRASQDIHGYLNWYQQKPDGTVKLLIYYTSILHSGVPSRFSGSGSGTDYSLTISNLEQEDFATYFCQQGNTLPWTFGGGTKLEIK", "notes": "also called mutant B5; L-CDR1 HG mutant of HA22"}, "B2": {"name": "B8 (scFv displayed on phage) (scFv, V domains shown)", "VH": "B1 VH", "VL": "B1 VL with H30R", "notes": "also called L-CDR1 RG mutant of HA22"}, "B3": {"name": "D8 (scFv displayed on phage) (scFv, V domains shown)", "VH": "B1 VH", "VL": "B1 VL with H30A, G31R", "notes": "also called L-CDR1 AR mutant of HA22"}, "B4": {"name": "E6 (scFv displayed on phage) (scFv, V domains shown)", "VH": "B1 VH", "VL": "B1 VL with H30G, G31R", "notes": "also called L-CDR1 GR mutant of HA22"}, "B5": {"name": "HA22 (scFv displayed on phage) (scFv, V domains shown)", "VH": "B1 VH", "VL": "B1 VL with H30S, G31N", "notes": "also called starting molecule; RFB4 with SSY of H-CDR3 mutated to THW"}},
  "key": {"[1]": {"molecular_target": "mesothelin (UniProt Q13421)", "sequence (Q13421 other isoform, or with tags, fused parts or gaps limits assumed)": "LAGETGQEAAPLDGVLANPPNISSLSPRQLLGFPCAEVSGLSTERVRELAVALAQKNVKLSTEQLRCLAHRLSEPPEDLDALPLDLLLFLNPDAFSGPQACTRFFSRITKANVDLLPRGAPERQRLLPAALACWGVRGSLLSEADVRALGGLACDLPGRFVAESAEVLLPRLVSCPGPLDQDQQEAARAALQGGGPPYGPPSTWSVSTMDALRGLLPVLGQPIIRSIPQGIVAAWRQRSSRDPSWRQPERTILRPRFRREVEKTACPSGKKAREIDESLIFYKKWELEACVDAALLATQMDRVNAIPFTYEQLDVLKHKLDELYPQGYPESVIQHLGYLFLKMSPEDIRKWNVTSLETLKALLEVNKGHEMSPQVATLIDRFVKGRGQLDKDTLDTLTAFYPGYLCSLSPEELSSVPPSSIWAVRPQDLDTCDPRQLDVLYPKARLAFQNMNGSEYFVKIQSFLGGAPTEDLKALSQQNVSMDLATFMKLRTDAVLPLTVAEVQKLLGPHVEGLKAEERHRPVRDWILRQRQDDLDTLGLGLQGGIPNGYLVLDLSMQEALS", "test": "cell-based or functional assay"}, "[2]": {"molecular_target": "CD22 (human) (UniProt P20273)", "test": "cell-based or functional assay"}, "[3]": {"molecular_target": "T1, CD22 (human, UniProt P20273 20-847)", "T1 construct": "whole, on cells; also called native CD22(αβ) on Daudi cells; CD22 antigen", "T1 sequence (looked up)": "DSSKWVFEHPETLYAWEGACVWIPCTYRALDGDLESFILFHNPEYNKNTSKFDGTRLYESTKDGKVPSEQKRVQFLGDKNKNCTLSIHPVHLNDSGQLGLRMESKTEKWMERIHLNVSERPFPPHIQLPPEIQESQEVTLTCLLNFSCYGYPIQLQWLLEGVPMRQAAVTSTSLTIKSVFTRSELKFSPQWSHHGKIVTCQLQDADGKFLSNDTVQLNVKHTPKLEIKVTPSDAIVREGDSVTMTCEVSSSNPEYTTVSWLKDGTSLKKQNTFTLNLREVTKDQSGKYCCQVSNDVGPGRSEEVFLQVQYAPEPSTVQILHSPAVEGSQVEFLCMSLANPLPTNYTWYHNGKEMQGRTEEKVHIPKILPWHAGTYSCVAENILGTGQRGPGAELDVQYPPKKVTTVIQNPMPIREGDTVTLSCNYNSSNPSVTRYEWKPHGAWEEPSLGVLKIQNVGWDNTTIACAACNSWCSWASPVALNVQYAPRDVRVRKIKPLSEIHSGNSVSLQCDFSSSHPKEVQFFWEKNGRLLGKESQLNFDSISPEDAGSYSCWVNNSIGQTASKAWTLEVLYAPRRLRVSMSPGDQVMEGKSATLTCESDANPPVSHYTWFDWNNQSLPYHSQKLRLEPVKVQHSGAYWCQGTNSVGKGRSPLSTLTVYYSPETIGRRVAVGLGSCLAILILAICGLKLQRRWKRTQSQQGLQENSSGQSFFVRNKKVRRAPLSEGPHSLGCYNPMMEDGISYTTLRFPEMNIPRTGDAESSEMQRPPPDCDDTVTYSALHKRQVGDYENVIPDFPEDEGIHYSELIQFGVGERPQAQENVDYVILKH", "test": "monoclonal phage FACS on Daudi cells"}, "[4]": {"molecular_target": "T1, CD22", "test": "monoclonal phage FACS on Daudi cells; HA22 is the reference that the mutants exceed"}},
  "note": "Changes are numbered by the printed parent chain.",
  "data": [
    {"molecule": "SS1P", "values": [
      {"measurement": "IC50, inhibition of protein synthesis, A431/K5", "setting": "[1]", "value": 0.7, "unit": "ng/mL"},
      {"measurement": "IC50, inhibition of protein synthesis, A1847", "setting": "[1]", "value": 4, "unit": "ng/mL"}
    ]},
    {"molecule": "SS1P (R490A)", "values": [
      {"measurement": "IC50, inhibition of protein synthesis, A431/K5", "setting": "[1]", "value": 0.45, "unit": "ng/mL"},
      {"measurement": "IC50, inhibition of protein synthesis, A1847", "setting": "[1]", "value": 1.5, "unit": "ng/mL"}
    ]},
    {"molecule": "HA22 RFB4 (scFv)-PE38 immunotoxin", "values": [
      {"measurement": "Cytotoxic Activity (IC50), Daudi (30 min incubation)", "setting": "[2]", "value": 5.6, "unit": "ng/mL"},
      {"measurement": "Cytotoxic Activity (IC50), Daudi, 16 hr, protein synthesis", "setting": "[2]", "value": 0.52, "unit": "ng/mL"},
      {"measurement": "Cytotoxic Activity (IC50), Namalwa", "setting": "[2]", "value": 1.2, "unit": "ng/mL"},
      {"measurement": "Cytotoxic Activity (IC50), Ramos", "setting": "[2]", "value": 4.9, "unit": "ng/mL"}
    ]},
    {"molecule": "RFB4 (dsFv)-PE38", "values": [
      {"measurement": "Cytotoxicity activity (IC50), protein synthesis inhibition, Daudi", "setting": "[2]", "value": 2.8, "unit": "ng/mL"},
      {"measurement": "Cytotoxicity activity (IC50), protein synthesis inhibition, Raji", "setting": "[2]", "value": 2.5, "unit": "ng/mL"}
    ]},
    {"molecule": "HA22 (R490A)", "values": [
      {"measurement": "Cytotoxicity activity (IC50), protein synthesis inhibition, Daudi", "setting": "[2]", "value": 0.2, "unit": "ng/mL"},
      {"measurement": "Cytotoxicity activity (IC50), protein synthesis inhibition, Raji", "setting": "[2]", "value": 0.3, "unit": "ng/mL"}
    ]},
    {"molecule": "B1", "values": [
      {"measurement": "binding result", "setting": "[3]", "value": "binds"}
    ]},
    {"molecule": "B2", "values": [
      {"measurement": "binding result", "setting": "[3]", "value": "binds"}
    ]},
    {"molecule": "B3", "values": [
      {"measurement": "binding result", "setting": "[3]", "value": "binds"}
    ]},
    {"molecule": "B4", "values": [
      {"measurement": "binding result", "setting": "[3]", "value": "binds"}
    ]},
    {"molecule": "B5", "values": [
      {"measurement": "binding result", "setting": "[4]", "value": "binds"}
    ]}
  ]
}
